Test results published in US20240301071A1 (Alector, published 2024).
Blank lines part the entries; values can stand above or below the binder they belong to.

Assays:
[1] = target: human SIRPA R295A (V5-tagged library clone on HEK-293T cells) (human, UniProt P78324 31-504); assay: flow cytometry of Fab on HEK-293T cells expressing the mutant, normalised to wild-type SIRPA
Protocol: (§1) Epitope mapping of anti-SIRPA antibodies was performed using an alanine-scanning library created by shotgun mutagenesis of the human SIRPA cDNA sequence. […] Each of the residues representing the SIRPA extracellular domain (amino acids 31-374 of SEQ ID NO:1) was mutated, most to alanine, while alanine codons were mutated to serine.
(§2) The SIRPA mutant library clones, arrayed in a 384-well microplate, were transfected individually into HEK-293T cells and allowed to express for 22 hours. Antibodies were digested to generate Fabs, after which cells were incubated with Fabs diluted in 10% normal goat serum (NGS) (Sigma-Aldrich, St. Louis, MO). Prior to library screening, primary Fab concentrations were determined using an independent immunofluorescence titration curve against cells expressing wild type SIRPA to ensure that signals were within the linear range of detection. Fabs were detected using 7.5 μg/ml AlexaFluor488-conjugated secondary antibody (Jackson ImmunoResearch Laboratories, Westgrove, PA) in 10% NGS. Cells were washed twice with PBS and resuspended in Cellstripper (Cellgro, Manassas, VA) with 0.1% BSA (Sigma-Aldrich, St. Louis, MO). In some cases, higher stringency conditions were used, including increased pH, increased temperature, and increased dissociation time. Mean cellular fluorescence was detected using the Intellicyt high throughput flow cytometer (HTFC, Intellicyt, Albuquerque, NM). Fab reactivities against each mutant clone were calculated relative to wild-type SIRPA protein reactivity by subtracting the signal from mock-transfected controls, and normalizing to the signal from wild-type SIRPA transfected controls.

[2] = target: human SIRPA Q281A (V5-tagged library clone on HEK-293T cells) (human, UniProt P78324 31-504); assay: as above
Protocol: as §1, §2

[3] = target: human SIRPA L285A (V5-tagged library clone on HEK-293T cells) (human, UniProt P78324 31-504); assay: as above
Protocol: as §1, §2

[4] = target: human SIRPA E297A (V5-tagged library clone on HEK-293T cells) (human, UniProt P78324 31-504); assay: as above
Protocol: as §1, §2

[5] = target: human SIRPA R282A (V5-tagged library clone on HEK-293T cells) (human, UniProt P78324 31-504); assay: as above
Protocol: as §1, §2

[6] = target: human SIRPA G337A (V5-tagged library clone on HEK-293T cells) (human, UniProt P78324 31-504); assay: as above
Protocol: as §1, §2

[7] = target: human SIRPA W315A (V5-tagged library clone on HEK-293T cells) (human, UniProt P78324 31-504); assay: as above
Protocol: as §1, §2

[8] = target: human SIRPA Q284A (V5-tagged library clone on HEK-293T cells) (human, UniProt P78324 31-504); assay: as above
Protocol: as §1, §2

[9] = target: human SIRPA V302A (V5-tagged library clone on HEK-293T cells) (human, UniProt P78324 31-504); assay: as above
Protocol: as §1, §2

[10] = target: human SIRPA W287A (V5-tagged library clone on HEK-293T cells) (human, UniProt P78324 31-504); assay: as above
Protocol: as §1, §2

[11] = target: T1, Fc-tagged marmoset SIRPA (accession no. JAB51896) (marmoset, UniProt U3F8F0 31-373); assay: ELISA, plate coated with Fc-tagged SIRPA
T1 sequence: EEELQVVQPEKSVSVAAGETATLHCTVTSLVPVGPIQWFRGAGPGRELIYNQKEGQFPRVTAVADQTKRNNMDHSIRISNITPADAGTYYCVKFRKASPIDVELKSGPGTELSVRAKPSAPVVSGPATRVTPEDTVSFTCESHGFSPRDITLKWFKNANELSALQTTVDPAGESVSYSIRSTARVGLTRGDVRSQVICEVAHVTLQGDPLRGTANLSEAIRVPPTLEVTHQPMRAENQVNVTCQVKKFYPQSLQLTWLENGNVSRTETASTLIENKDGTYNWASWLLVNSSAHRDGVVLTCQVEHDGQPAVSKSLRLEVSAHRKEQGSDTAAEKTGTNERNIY
Protocol: (§3) In an ELISA assay, 96-well Immulon HBX plates were coated with His- or Fc-tagged SIRPA of a given species, as indicated, at 1 μg/mL in PBS overnight at 4C. Plates were blocked in 5% (w/v) bovine serum albumin in PBS for 1 hour, after which they were washed 3 times with PBS/0.05% Tween 20 (PBS/T). Anti-SIRPA antibodies were added to the plate in a dilution series and were incubated at room temperature for 2 hours, after which the unbound antibody was removed by washing with PBS/T. Horseradish peroxidase-conjugated anti-mouse IgG or anti-human kappa light chain (Jackson Immunoresearch) was then added to the wells and incubated for 30 minutes. Unbound antibody was removed by washing with PBS/T, after which bound antibody was detected using tetramethylbenzidine (TMB). The reaction was stopped with 2N H₂SO₄, after which the plates were read at A450.

[12] = target: T2, Fc-tagged dog SIRPA (accession no. XP005634938) (dog, UniProt A0A8I3P880); assay: ELISA, plate coated with Fc-tagged SIRPA
T2 sequence: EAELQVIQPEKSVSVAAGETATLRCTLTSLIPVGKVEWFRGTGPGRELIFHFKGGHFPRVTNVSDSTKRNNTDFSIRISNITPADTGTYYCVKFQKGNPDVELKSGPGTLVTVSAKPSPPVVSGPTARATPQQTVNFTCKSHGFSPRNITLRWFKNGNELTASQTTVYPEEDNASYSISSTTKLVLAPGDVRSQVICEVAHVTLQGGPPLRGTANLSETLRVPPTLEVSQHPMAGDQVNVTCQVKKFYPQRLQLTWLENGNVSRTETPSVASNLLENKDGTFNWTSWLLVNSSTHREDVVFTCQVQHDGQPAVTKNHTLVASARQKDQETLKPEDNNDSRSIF
Protocol: as §3

[13] = target: T3, histidine-tagged human SIRPA v1 (Novoprotein) (human, UniProt P78324 31-370, limits assumed); assay: BLI (Octet)
T3 construct: bought, soluble; also called huSIRPA; soluble huSIRPA; not shown: histidine tag
Protocol: (§4) Initial characterization of affinity matured anti-SIRPA antibodies disclosed herein comprised acquiring antigen affinity measurements using bio-layer interferometry (BLI) on a Pall ForteBio Octet RED96 instrument. Immobilized anti-mouse IgG Fc or anti-human IgG Fc antibodies captured murine anti-SIRPA 3F79 antibody and humanized anti-SIRPA 3F79 antibody on biosensors, respectively. Single cycle kinetics were performed with 25 nM huSIRPA [which variant?] or 50 nM huSIRPB 1 flowed over captured antibody 3F79 to record traces. Data analysis was performed using ForteBio Data Analysis Software, version 9.0. Standard kinetic buffer (PBS, 0.100 BSA, 0.02% Tween-20, pH 7.2) was used for the assay and for preparing reagents. […] 50 nM of histidine-tagged human SIRPA vi or human SIRPB1 (Novoprotein, Summit, NJ, USA) were then bound to the captured anti-SIRPA antibody coated surface (200 s association time, 900 s dissociation time). […] Single-curve kinetic analysis was performed using a 1:1 interaction model to extract association and dissociation rate constants (ka and kd, respectively) for each antibody. Affinity constants (KD) were calculated from the ratio kd/ka.

huSIRPA v.2 NP542970.1 = target: T4, huSIRPA v.2 NP542970.1 (human, UniProt P78324 31-373, limits assumed); assay: ELISA, plate coated with tagged SIRPA at 1 ug/mL
T4 construct: see m48; also called human SIRPA v2; human SIRPA-Fc (v2)
Protocol: as §3

rat SIRPA = target: T5, rat SIRPA (rat, UniProt P97710 32-373, limits assumed); assay: ELISA, plate coated with tagged SIRPA at 1 ug/mL
T5 sequence (looked up): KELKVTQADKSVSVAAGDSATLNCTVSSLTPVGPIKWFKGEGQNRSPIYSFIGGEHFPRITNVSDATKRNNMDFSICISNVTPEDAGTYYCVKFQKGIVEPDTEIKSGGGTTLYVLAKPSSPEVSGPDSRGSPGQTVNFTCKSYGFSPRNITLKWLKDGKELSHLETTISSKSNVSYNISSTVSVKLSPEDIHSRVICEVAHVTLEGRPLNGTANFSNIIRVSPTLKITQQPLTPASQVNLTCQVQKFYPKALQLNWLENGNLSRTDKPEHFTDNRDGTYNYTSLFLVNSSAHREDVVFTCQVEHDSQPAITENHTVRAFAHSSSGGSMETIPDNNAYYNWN
Protocol: as §3

cynoSIRPA XPO15313153.1 = target: T6, cynoSIRPA XPO15313153.1 (cynomolgus, UniProt A0A2K5VYQ9); assay: ELISA, plate coated with tagged SIRPA at 1 ug/mL
T6 construct: not tied one by one in the text; also called cynomolgus SIRPA; not shown: Fc or His tag
T6 sequence: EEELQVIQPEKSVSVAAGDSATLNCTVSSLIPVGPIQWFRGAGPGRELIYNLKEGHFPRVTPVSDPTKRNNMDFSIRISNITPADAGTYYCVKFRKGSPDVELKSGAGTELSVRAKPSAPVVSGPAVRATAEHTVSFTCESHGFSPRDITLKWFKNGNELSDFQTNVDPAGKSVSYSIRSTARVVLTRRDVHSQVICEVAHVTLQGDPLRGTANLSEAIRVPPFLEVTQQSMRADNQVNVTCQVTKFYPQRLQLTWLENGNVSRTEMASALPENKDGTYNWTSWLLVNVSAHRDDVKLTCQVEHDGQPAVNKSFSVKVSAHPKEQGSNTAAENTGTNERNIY
Protocol: as §3

[14] = target: T7, human SIRPA on human macrophages (primary monocyte-derived macrophages; U937 line) (human, UniProt P78324 31-504); assay: cell-based or functional assay
[15] = target: T8, human SIRPA v1 on BWZ cells (BWZ-huSIRPA) (human, UniProt P78324 31-504); assay: flow cytometry titration on BWZ-huSIRPA cells, 4 C
T8 construct: also called BWZ cells overexpressing human SIRPA; BWZ-huSIRPA v1 cells
Protocol: After addition of fluorescently labeled secondary antibody and brief washing steps, MFI values as a function of titrated antibody concentration was recorded via FACS analysis. […] Receptor bound antibodies were detected by staining cells with anti-human IgG PE secondary antibody. Curves were fit using nonlinear regression analysis with Graphpad Prism 6 software.

[16] = target: T7, human SIRPA on human macrophages …; assay: cell-based or functional assay; remark: listed apart in the source
[17] = target: T3, histidine-tagged human SIRPA v1 …; assay: BLI (Octet), antibody on anti-human IgG Fc sensor, His-huSIRPA in solution, single-curve 1:1 fit
Protocol: as §4

T7 sequence (P78324 31-370): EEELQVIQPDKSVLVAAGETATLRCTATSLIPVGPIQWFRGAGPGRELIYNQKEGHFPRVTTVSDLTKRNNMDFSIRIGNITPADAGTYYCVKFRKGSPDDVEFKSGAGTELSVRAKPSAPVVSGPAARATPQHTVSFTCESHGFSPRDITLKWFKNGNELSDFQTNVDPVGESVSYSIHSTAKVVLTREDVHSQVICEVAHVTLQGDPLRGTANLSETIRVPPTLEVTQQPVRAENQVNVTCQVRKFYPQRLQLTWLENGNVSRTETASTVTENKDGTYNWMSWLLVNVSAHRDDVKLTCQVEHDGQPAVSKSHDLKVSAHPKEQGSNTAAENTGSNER
T3 sequence (P78324 31-370 limits assumed): as the sequence (P78324 31-370) above
T8 sequence (P78324 31-504): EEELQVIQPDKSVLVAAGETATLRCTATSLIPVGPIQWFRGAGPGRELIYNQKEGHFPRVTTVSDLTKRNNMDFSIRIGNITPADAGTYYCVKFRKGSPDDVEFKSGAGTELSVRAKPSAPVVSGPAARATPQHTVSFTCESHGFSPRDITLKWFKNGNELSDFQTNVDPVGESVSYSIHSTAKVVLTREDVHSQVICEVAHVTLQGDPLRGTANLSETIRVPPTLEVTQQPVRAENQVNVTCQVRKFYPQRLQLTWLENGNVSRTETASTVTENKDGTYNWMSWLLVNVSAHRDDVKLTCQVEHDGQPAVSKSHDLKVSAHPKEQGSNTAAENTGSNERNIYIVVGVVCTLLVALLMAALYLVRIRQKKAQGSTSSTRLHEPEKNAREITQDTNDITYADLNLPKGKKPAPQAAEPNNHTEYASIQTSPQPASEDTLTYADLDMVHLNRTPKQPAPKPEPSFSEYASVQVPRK
T4 sequence (P78324 31-373 limits assumed): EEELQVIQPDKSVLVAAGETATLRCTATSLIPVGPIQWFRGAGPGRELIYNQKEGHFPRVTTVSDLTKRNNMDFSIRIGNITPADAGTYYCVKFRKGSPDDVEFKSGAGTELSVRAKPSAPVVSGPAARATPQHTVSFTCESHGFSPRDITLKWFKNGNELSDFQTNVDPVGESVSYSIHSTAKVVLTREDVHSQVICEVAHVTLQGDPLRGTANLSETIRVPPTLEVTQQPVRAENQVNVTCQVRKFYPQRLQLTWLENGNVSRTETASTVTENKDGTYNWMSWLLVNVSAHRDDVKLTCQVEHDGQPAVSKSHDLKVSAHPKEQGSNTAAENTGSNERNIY
human SIRPA Q281A (V5-tagged library clone on HEK-293T cells), sequence (P78324 31-504 Q281A): as the sequence (P78324 31-504) above, with Q251A counted along it
human SIRPA E297A (V5-tagged library clone on HEK-293T cells), sequence (P78324 31-504 E297A): as the sequence (P78324 31-504) above, with E267A counted along it
human SIRPA R282A (V5-tagged library clone on HEK-293T cells), sequence (P78324 31-504 R282A): as the sequence (P78324 31-504) above, with R252A counted along it
human SIRPA W287A (V5-tagged library clone on HEK-293T cells), sequence (P78324 31-504 W287A): as the sequence (P78324 31-504) above, with W257A counted along it
human SIRPA R295A (V5-tagged library clone on HEK-293T cells), sequence (P78324 31-504 R295A): as the sequence (P78324 31-504) above, with R265A counted along it
human SIRPA W315A (V5-tagged library clone on HEK-293T cells), sequence (P78324 31-504 W315A): as the sequence (P78324 31-504) above, with W285A counted along it
human SIRPA V302A (V5-tagged library clone on HEK-293T cells), sequence (P78324 31-504 V302A): as the sequence (P78324 31-504) above, with V272A counted along it
human SIRPA L285A (V5-tagged library clone on HEK-293T cells), sequence (P78324 31-504 L285A): as the sequence (P78324 31-504) above, with L255A counted along it
human SIRPA G337A (V5-tagged library clone on HEK-293T cells), sequence (P78324 31-504 G337A): as the sequence (P78324 31-504) above, with G307A counted along it
human SIRPA Q284A (V5-tagged library clone on HEK-293T cells), sequence (P78324 31-504 Q284A): as the sequence (P78324 31-504) above, with Q254A counted along it

Binding Reactivity (% WT) [1]: 121 % WT
Binding Reactivity (% WT) [2]: 151 % WT
Binding Reactivity (% WT) [3]: 107 % WT
Binding Reactivity (% WT) [4]: 117 % WT
Binding Reactivity (% WT) [5]: 3.8 % WT
Binding Reactivity (% WT) [6]: 17.9 % WT
Binding Reactivity (% WT) [7]: 117 % WT
Binding Reactivity (% WT) [8]: 3.3 % WT
Binding Reactivity (% WT) [9]: 92.3 % WT
Binding Reactivity (% WT) [10]: 125 % WT
B1: 3F9 Fab (Fab, V domains shown)
VH: EVKLVESGGGLVKPGGSLKLSCAASGFTFSSYAMSWVRQTPEKRLEWVATISDYGGSYTYYPDSVKGRFTISRDNAKYTLYLQMSSLRSEDTALYYCARPPYDDYYGGFAYWGQGTLVTVSA
VL: DIVLTQSPASLAVSLGQRATISCRASKSVSSSGYSYMHWYQQKPGQPPKLLIYLASNLESGVPARFSGSGSGTDFTLNIHPVEEEDAATYYCQHNRELPCTFGGGTKLEIK

EC50 [11]: 1.2 nM
EC50 [12]: 0.64 nM
fold increase in affinity relative to parental h3F9 [13]: ~10 fold
EC50 (huSIRPA v.2 NP542970.1): 0.08 nM
binding result (rat SIRPA): no binding
EC50 (cynoSIRPA XPO15313153.1): 0.879 nM
SIRPA IC50 (nM), downregulation on U937 cells [14]: 1.17 nM
SIRPA Max % DR, U937 cells [14]: 69%
EC50 [15]: 0.42 nM
Phagocytosis, fold increase over baseline activity [16]: 1.56 fold
SIRPA IC50 (nM), downregulation on human primary macrophages [16]: 0.0372 nM
SIRPA Max % DR, human primary macrophages [16]: 89%
Kd [17]: 0.618 nM
koff [17]: 0.000102 s⁻¹
kon [17]: 165000 M⁻¹ s⁻¹
B2: 3F9-14 (antibody)
heavy: not shown
light: DIQLTQSPSSLSASVGDRVTITCRASKSVSSGGYSYMHWYQQKPGKAPKLLIYLASNLESGVPSRFSGSGSGTDFTLTISSVQPEDFATYYCQHNRELPVTFGQGTKLEIKRTVAAPSVFIFPPSDEQLKSGTASVVCLLNNFYPREAKVQWKVDNALQSGNSQESVTEQDSKDSTYSLSSTLTLSKADYEKHKVYACEVTHQGLSSPVTKSFNRGEC
notes: also called mAb 3F9-14; hu3F9-14

EC50 [11]: 4.3 nM
EC50 [12]: 0.83 nM
fold increase in affinity relative to parental h3F9 [13]: ~10 fold
EC50 (huSIRPA v.2 NP542970.1): 0.082 nM
binding result (rat SIRPA): no binding
EC50 (cynoSIRPA XPO15313153.1): 0.107 nM
SIRPA IC50 (nM), downregulation on U937 cells [14]: 0.187 nM
SIRPA Max % DR, U937 cells [14]: 76%
EC50 [15]: 0.49 nM
Phagocytosis, fold increase over baseline activity [16]: 1.68 fold
SIRPA IC50 (nM), downregulation on human primary macrophages [16]: 0.0542 nM
SIRPA Max % DR, human primary macrophages [16]: 91%
Kd [17]: 0.646 nM
koff [17]: 0.000113 s⁻¹
kon [17]: 174000 M⁻¹ s⁻¹
B3: 3F9-22 (antibody)
heavy: not shown
light: B2 light
notes: also called mAb 3F9-22; hu3F9-22
